Measured values published in patent publication US20140087995A1 (published 2014).
Numbered stars: 1 amine (or outer) side, 2 acyl side, 3 side chain; on linkers, the order of the positions; unused ones are H or OH. Bridge positions count the residues as written; N and C are the ends. Side chains are listed from the residue outwards. Ends that are not written are not given here. * marks the point of attachment. C20 diacid = O=C(O)CCCCCCCCCCCCCCCCCCC(=O)*; γGlu = O=C(O)[C@H](CCC(=O)[*:2])N[*:1]

T1: human amylin receptor (amylin 3(a) receptor: human calcitonin receptor plus RAMP-3) (human, UniProt P30988 25-474; O60896 24-148)
T1 sequence (looked up) 1: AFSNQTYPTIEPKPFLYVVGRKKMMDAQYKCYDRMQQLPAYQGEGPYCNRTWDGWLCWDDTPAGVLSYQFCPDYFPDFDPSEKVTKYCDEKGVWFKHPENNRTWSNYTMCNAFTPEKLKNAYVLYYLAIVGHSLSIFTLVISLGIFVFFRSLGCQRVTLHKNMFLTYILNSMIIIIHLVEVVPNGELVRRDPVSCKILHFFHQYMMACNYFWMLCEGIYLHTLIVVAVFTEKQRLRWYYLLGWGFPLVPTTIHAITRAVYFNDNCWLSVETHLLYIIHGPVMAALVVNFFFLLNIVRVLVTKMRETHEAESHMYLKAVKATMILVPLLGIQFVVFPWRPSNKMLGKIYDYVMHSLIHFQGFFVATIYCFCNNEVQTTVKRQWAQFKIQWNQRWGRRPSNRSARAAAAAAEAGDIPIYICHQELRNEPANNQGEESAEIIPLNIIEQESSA
T1 sequence (looked up) 2: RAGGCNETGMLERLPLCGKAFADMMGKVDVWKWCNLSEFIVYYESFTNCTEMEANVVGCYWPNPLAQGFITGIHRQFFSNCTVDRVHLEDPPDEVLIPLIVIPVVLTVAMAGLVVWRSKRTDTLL

T2: human calcitonin receptor (human, UniProt P30988 25-474)
T2 sequence (looked up): T1 sequence (looked up) 1

T3: rat calcitonin receptor (rat, UniProt P32214 25-516)
T3 construct: whole, on cells; Cell membranes of transiently transfected BHK tk'ts 13 cells (Assay VIII); also called rCTR; rCT
T3 sequence (looked up): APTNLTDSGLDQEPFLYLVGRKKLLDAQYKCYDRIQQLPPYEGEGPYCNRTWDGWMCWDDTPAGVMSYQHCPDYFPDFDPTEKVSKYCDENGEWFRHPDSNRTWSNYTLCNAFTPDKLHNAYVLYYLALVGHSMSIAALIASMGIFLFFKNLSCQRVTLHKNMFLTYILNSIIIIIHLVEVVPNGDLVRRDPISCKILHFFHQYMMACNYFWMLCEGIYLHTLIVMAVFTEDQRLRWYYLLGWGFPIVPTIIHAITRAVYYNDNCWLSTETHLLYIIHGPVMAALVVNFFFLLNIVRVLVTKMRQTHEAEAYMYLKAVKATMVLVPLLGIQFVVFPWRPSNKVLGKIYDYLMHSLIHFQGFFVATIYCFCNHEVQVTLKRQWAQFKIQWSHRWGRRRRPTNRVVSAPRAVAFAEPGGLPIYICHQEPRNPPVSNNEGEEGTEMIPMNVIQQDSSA

T4: rat amylin receptor (rat calcitonin receptor + rat RAMP 3) (rat, UniProt P32214 25-516; Q9JJ73 23-147)
T4 construct: whole, on cells; Cell membranes of transiently transfected BHK tk'ts 13 cells (Assay VI); also called rAmylin-R; rat amylin 3(a) receptor
T4 sequence (looked up) 1: T3 sequence (looked up)
T4 sequence (looked up) 2: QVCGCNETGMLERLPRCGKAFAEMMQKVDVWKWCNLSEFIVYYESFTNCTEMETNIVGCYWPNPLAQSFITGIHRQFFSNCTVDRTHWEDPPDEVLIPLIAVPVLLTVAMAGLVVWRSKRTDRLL

B1: N^α1N^α1-[(4S)-4-carboxy-4-(19-carboxynonadecanoylamino)butanoyl]-[Glu14,Arg17,Pro21,Pro27,Glu35]-h-amylin (peptide)
peptide: {C20 diacid-γGlu}-KCNTATCATQRLAEFLRHSSPNFGAIPSSTNVGSETY-NH2
modifications: disulfide 2-7
SMILES: CC[C@H](C)[C@H](NC(=O)[C@H](C)NC(=O)CNC(=O)[C@H](Cc1ccccc1)NC(=O)[C@H](CC(N)=O)NC(=O)[C@@H]1CCCN1C(=O)[C@H](CO)NC(=O)[C@H](CO)NC(=O)[C@H](Cc1c[nH]cn1)NC(=O)[C@H](CCCNC(=N)N)NC(=O)[C@H](CC(C)C)NC(=O)[C@H](Cc1ccccc1)NC(=O)[C@H](CCC(=O)O)NC(=O)[C@H](C)NC(=O)[C@H](CC(C)C)NC(=O)[C@H](CCCNC(=N)N)NC(=O)[C@H](CCC(N)=O)NC(=O)[C@@H](NC(=O)[C@H](C)NC(=O)[C@@H]1CSSC[C@H](NC(=O)[C@H](CCCCN)NC(=O)CC[C@H](NC(=O)CCCCCCCCCCCCCCCCCCC(=O)O)C(=O)O)C(=O)N[C@@H](CC(N)=O)C(=O)N[C@@H]([C@@H](C)O)C(=O)N[C@@H](C)C(=O)N[C@@H]([C@@H](C)O)C(=O)N1)[C@@H](C)O)C(=O)N1CCC[C@H]1C(=O)N[C@@H](CO)C(=O)N[C@@H](CO)C(=O)N[C@H](C(=O)N[C@@H](CC(N)=O)C(=O)N[C@H](C(=O)NCC(=O)N[C@@H](CO)C(=O)N[C@@H](CCC(=O)O)C(=O)N[C@H](C(=O)N[C@@H](Cc1ccc(O)cc1)C(N)=O)[C@@H](C)O)C(C)C)[C@@H](C)O
notes: also called compound 22
B2: N^α1-[(4S)-4-carboxy-4-(19-carboxynonadecanoylamino)butanoyl]-[Arg17,Pro21,Pro27,Glu35]-h-amylin (peptide)
peptide: KCNTATCATQRLANFLRHSSPNFGAIPSSTNVGSETY
modifications: C20 diacid-gGlu on the alpha amino group of the N-terminal residue (Lys1); disulfide Cys2-Cys7 and C-terminal amide as in human amylin
notes: also called compound 23
B3: N^α1-[(4S)-4-carboxy-4-(19-carboxynonadecanoylamino)butanoyl]-[Arg17,Pro21,Pro27,Pro31,Glu35]-h-amylin (peptide)
peptide: {C20 diacid-γGlu}-KCNTATCATQRLANFLRHSSPNFGAIPSSTPVGSETY-NH2
modifications: disulfide 2-7
SMILES: CC[C@H](C)[C@H](NC(=O)[C@H](C)NC(=O)CNC(=O)[C@H](Cc1ccccc1)NC(=O)[C@H](CC(N)=O)NC(=O)[C@@H]1CCCN1C(=O)[C@H](CO)NC(=O)[C@H](CO)NC(=O)[C@H](Cc1c[nH]cn1)NC(=O)[C@H](CCCNC(=N)N)NC(=O)[C@H](CC(C)C)NC(=O)[C@H](Cc1ccccc1)NC(=O)[C@H](CC(N)=O)NC(=O)[C@H](C)NC(=O)[C@H](CC(C)C)NC(=O)[C@H](CCCNC(=N)N)NC(=O)[C@H](CCC(N)=O)NC(=O)[C@@H](NC(=O)[C@H](C)NC(=O)[C@@H]1CSSC[C@H](NC(=O)[C@H](CCCCN)NC(=O)CC[C@H](NC(=O)CCCCCCCCCCCCCCCCCCC(=O)O)C(=O)O)C(=O)N[C@@H](CC(N)=O)C(=O)N[C@@H]([C@@H](C)O)C(=O)N[C@@H](C)C(=O)N[C@@H]([C@@H](C)O)C(=O)N1)[C@@H](C)O)C(=O)N1CCC[C@H]1C(=O)N[C@@H](CO)C(=O)N[C@@H](CO)C(=O)N[C@H](C(=O)N1CCC[C@H]1C(=O)N[C@H](C(=O)NCC(=O)N[C@@H](CO)C(=O)N[C@@H](CCC(=O)O)C(=O)N[C@H](C(=O)N[C@@H](Cc1ccc(O)cc1)C(N)=O)[C@@H](C)O)C(C)C)[C@@H](C)O
notes: also called compound 28
B4: N^ε1-[(4S)-4-carboxy-4-(19-carboxynonadecanoylamino)butanoyl]-[Glu14,Arg17,Pro21,Pro27,Arg35]-h-amylin (peptide)
peptide: K([γGlu-C20 diacid])CNTATCATQRLAEFLRHSSPNFGAIPSSTNVGSRTY-NH2
modifications: disulfide 2-7; N-terminus assumed
SMILES: CC[C@H](C)[C@H](NC(=O)[C@H](C)NC(=O)CNC(=O)[C@H](Cc1ccccc1)NC(=O)[C@H](CC(N)=O)NC(=O)[C@@H]1CCCN1C(=O)[C@H](CO)NC(=O)[C@H](CO)NC(=O)[C@H](Cc1c[nH]cn1)NC(=O)[C@H](CCCNC(=N)N)NC(=O)[C@H](CC(C)C)NC(=O)[C@H](Cc1ccccc1)NC(=O)[C@H](CCC(=O)O)NC(=O)[C@H](C)NC(=O)[C@H](CC(C)C)NC(=O)[C@H](CCCNC(=N)N)NC(=O)[C@H](CCC(N)=O)NC(=O)[C@@H](NC(=O)[C@H](C)NC(=O)[C@@H]1CSSC[C@H](NC(=O)[C@@H](N)CCCCNC(=O)CC[C@H](NC(=O)CCCCCCCCCCCCCCCCCCC(=O)O)C(=O)O)C(=O)N[C@@H](CC(N)=O)C(=O)N[C@@H]([C@@H](C)O)C(=O)N[C@@H](C)C(=O)N[C@@H]([C@@H](C)O)C(=O)N1)[C@@H](C)O)C(=O)N1CCC[C@H]1C(=O)N[C@@H](CO)C(=O)N[C@@H](CO)C(=O)N[C@H](C(=O)N[C@@H](CC(N)=O)C(=O)N[C@H](C(=O)NCC(=O)N[C@@H](CO)C(=O)N[C@@H](CCCNC(=N)N)C(=O)N[C@H](C(=O)N[C@@H](Cc1ccc(O)cc1)C(N)=O)[C@@H](C)O)C(C)C)[C@@H](C)O
notes: Acylated analogue of human amylin; also called compound 51
B5: N^ε1-[(4S)-4-carboxy-4-(19-carboxynonadecanoylamino)butanoyl]-[His14,Arg17,Pro21,Pro27,Pro31]-h-amylin (peptide)
peptide: K([γGlu-C20 diacid])CNTATCATQRLAHFLRHSSPNFGAIPSSTPVGSNTY-NH2
modifications: disulfide 2-7; N-terminus assumed
SMILES: CC[C@H](C)[C@H](NC(=O)[C@H](C)NC(=O)CNC(=O)[C@H](Cc1ccccc1)NC(=O)[C@H](CC(N)=O)NC(=O)[C@@H]1CCCN1C(=O)[C@H](CO)NC(=O)[C@H](CO)NC(=O)[C@H](Cc1c[nH]cn1)NC(=O)[C@H](CCCNC(=N)N)NC(=O)[C@H](CC(C)C)NC(=O)[C@H](Cc1ccccc1)NC(=O)[C@H](Cc1c[nH]cn1)NC(=O)[C@H](C)NC(=O)[C@H](CC(C)C)NC(=O)[C@H](CCCNC(=N)N)NC(=O)[C@H](CCC(N)=O)NC(=O)[C@@H](NC(=O)[C@H](C)NC(=O)[C@@H]1CSSC[C@H](NC(=O)[C@@H](N)CCCCNC(=O)CC[C@H](NC(=O)CCCCCCCCCCCCCCCCCCC(=O)O)C(=O)O)C(=O)N[C@@H](CC(N)=O)C(=O)N[C@@H]([C@@H](C)O)C(=O)N[C@@H](C)C(=O)N[C@@H]([C@@H](C)O)C(=O)N1)[C@@H](C)O)C(=O)N1CCC[C@H]1C(=O)N[C@@H](CO)C(=O)N[C@@H](CO)C(=O)N[C@H](C(=O)N1CCC[C@H]1C(=O)N[C@H](C(=O)NCC(=O)N[C@@H](CO)C(=O)N[C@@H](CC(N)=O)C(=O)N[C@H](C(=O)N[C@@H](Cc1ccc(O)cc1)C(N)=O)[C@@H](C)O)C(C)C)[C@@H](C)O
notes: Acylated analogue of human amylin; also called compound 62

Legend:
[1] = target: T1, human amylin receptor (amylin 3(a) …); experiment: cell-based or functional assay
[2] = target: T2, human calcitonin receptor; experiment: cell-based or functional assay
[3] = target: T1, human amylin receptor (amylin 3(a) …); experiment: SPA competition binding, displacement of 125I-rat amylin, membranes of BHK amylin 3(a)/CRE-luc cells
Procedure: The binding assay was performed using scintillation proximity assay (SPA) beads (RPNQ0001) from PerkinElmer and cell membranes from the Amylin 3(a)/CRE-luc cells (as described in Assay (II)) were used. Membranes were prepared in the following way; the cells were rinsed with PBS and incubated with Versene for approximately 5 min before harvesting. The cells were flushed with PBS and the cell-suspension was centrifuged for 5 min at 1000 rpm. Cells were homogenized (ultrathurrax) in a buffer containing 20 mM Na-HEPES and 10 mM EDTA (pH 7.4) and centrifuged at 20.000 rpm for 15 min. The resulting pellet was resuspended, homogenized and centrifuged (20.000 rpm, 15 min) in a buffer containing 20 mM Na-HEPES and 0.1 mM EDTA (pH 7.4, buffer 2). The resulting pellet was resuspended in buffer 2 and protein concentration was measured (BCA protein Assay, Pierce). The homogenate was kept cold during the whole procedure. The membranes were kept at −80° C. until use. The assay was performed in a 384 well Optiplate (PerkinElmer) in a total volume of 40 ul. Membranes were mixed with SPA beads. Final concentration of membranes 35 ng/μL final and SPA beads was 0.05 mg/well. Test-compounds were dissolved in DMSO and further diluted in assay buffer (50 mM Hepes, pH 7.4, 1 mM CaCl2, 5 mM MgCl₂, 0.1% OA and 0.02% Tween20). […] The final mixture was incubated with shaking at 400 rpm for 120 min at 25° C. prior to centrifugation (1500 rpm, 10 min). Samples were analyzed on TopCounter™ (Packard). The IC₅₀ was calculated using (one site binding competition analysis) GraphPad Prism5 as a measure of receptor affinity.

rat calcitonin receptor [4] = target: T3, rat calcitonin receptor; experiment: ratio IC50 rat calcitonin receptor / IC50 rat amylin receptor
rat calcitonin receptor [5] = target: T3, rat calcitonin receptor; experiment: SPA competition vs 125I-calcitonin, membranes with rat CTR (Assay VIII)
[6] = target: T4, rat amylin receptor (rat calcitonin …); experiment: SPA competition vs 125I-rat amylin, membranes with rat CTR + rat RAMP3 (Assay VI)

| Binder | Ratio hCT/hAmylin funct. [1] | hAmylin-R funct. EC50 (pM) [1] | hCTR funct. EC50 (pM) [2] | IC50 [3] | Ratio rCT/rAmylin binding (rat calcitonin receptor [4]) | IC50 (rat calcitonin receptor [5]) | IC50 [6] |
| --- | --- | --- | --- | --- | --- | --- | --- |
| B1 | 3.8 | 270 pM | 1030 pM | 0.794 nM | – | – | – |
| B2 | 8.9 | 340 pM | 3020 pM | 0.871 nM | – | – | – |
| B3 | 9.2 | 220 pM | 2030 pM | 0.61 nM | – | – | – |
| B4 | – | – | – | – | 119 | 62 nM | 0.523 nM |
| B5 | – | – | – | – | 42.8 | 18 nM | 0.42 nM |
